Measured values as given in publication PMC10397247.

What was measured:
Assay in all cases: two-hybrid library CCmax;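 also: natural log of median RNA to DNA barcode read ratio; higher means stronger binding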
4H1401-AA = target: T1, 4H1401-AA; settings: mean of both orientations
T1 chain: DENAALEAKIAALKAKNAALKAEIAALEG

4H2883-AA = target: T2, 4H2883-AA; settings: mean of both orientations
T2 chain: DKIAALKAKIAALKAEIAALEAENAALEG

4H2729-AA = target: T3, 4H2729-AA; settings: mean of both orientations
T3 chain: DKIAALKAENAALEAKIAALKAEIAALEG

4H2642-AA = target: T4, 4H2642-AA; settings: mean of both orientations
T4 chain: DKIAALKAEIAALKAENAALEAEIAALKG

4H794-AA = target: T5, 4H794-AA; settings: mean of both orientations
T5 chain: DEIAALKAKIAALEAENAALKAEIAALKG

4H678-AA = target: T6, 4H678-AA; settings: mean of both orientations
T6 chain: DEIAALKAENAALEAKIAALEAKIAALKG

4H2165-AA = target: T7, 4H2165-AA; settings: mean of both orientations
T7 chain: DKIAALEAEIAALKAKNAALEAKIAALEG

4H1867-AA = target: T8, 4H1867-AA; settings: mean of both orientations
T8 chain: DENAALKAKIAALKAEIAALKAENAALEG

4H335-AA = target: T9, 4H335-AA; settings: mean of both orientations
T9 chain: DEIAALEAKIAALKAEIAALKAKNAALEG

4H2754-AA = target: T10, 4H2754-AA; settings: mean of both orientations
T10 chain: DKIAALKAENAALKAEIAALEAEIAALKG

4H2949-AA = target: T11, 4H2949-AA; settings: mean of both orientations
T11 chain: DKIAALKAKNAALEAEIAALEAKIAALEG

4H2354-AA = target: T12, 4H2354-AA; settings: mean of both orientations
T12 chain: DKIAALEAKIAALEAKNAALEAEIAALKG

4H3112-AA = target: T13, 4H3112-AA; settings: mean of both orientations
T13 chain: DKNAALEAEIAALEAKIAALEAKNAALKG

4H906-AA = target: T14, 4H906-AA; settings: mean of both orientations
T14 chain: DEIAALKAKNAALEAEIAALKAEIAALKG

4H780-AA = target: T15, 4H780-AA; settings: mean of both orientations
T15 chain: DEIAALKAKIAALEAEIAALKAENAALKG

4H605-AA = target: T16, 4H605-AA; settings: mean of both orientations
T16 chain: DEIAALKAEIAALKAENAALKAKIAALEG

4H3655-AA = target: T17, 4H3655-AA; settings: mean of both orientations
T17 chain: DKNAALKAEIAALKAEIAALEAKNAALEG

4H881-AA = target: T18, 4H881-AA; settings: mean of both orientations
T18 chain: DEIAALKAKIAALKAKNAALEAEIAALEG

4H317-AA = target: T19, 4H317-AA; settings: mean of both orientations
T19 chain: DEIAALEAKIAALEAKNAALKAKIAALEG

4H1352-AA = target: T20, 4H1352-AA; settings: mean of both orientations
T20 chain: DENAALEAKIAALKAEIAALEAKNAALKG

4H2190-AA = target: T21, 4H2190-AA; settings: mean of both orientations
T21 chain: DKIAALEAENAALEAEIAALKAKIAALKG

4H566-AA = target: T22, 4H566-AA; settings: mean of both orientations
T22 chain: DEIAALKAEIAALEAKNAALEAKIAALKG

4H3343-AA = target: T23, 4H3343-AA; settings: mean of both orientations
T23 chain: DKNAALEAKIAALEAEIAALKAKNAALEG

4H342-AA = target: T24, 4H342-AA; settings: mean of both orientations
T24 chain: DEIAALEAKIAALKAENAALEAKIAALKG

4H993-AA = target: T25, 4H993-AA; settings: mean of both orientations
T25 chain: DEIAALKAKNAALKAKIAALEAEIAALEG

4H2078-AA = target: T26, 4H2078-AA; settings: mean of both orientations
T26 chain: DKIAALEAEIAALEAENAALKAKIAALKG

4H2575-AA = target: T27, 4H2575-AA; settings: mean of both orientations
T27 chain: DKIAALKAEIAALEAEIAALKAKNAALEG

4H122-AA = target: T28, 4H122-AA
T28 chain: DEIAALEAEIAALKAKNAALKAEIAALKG

4H1636-AA = target: T29, 4H1636-AA; settings: mean of both orientations
T29 chain: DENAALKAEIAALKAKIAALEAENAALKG

4H2151-AA = target: T30, 4H2151-AA; settings: mean of both orientations
T30 chain: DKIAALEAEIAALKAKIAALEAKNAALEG

4H2944-AA = target: T31, 4H2944-AA; settings: mean of both orientations
T31 chain: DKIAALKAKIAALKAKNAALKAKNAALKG

4H717-AA = target: T32, 4H717-AA; settings: mean of both orientations
T32 chain: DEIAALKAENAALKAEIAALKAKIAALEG

4H2617-AA = target: T33, 4H2617-AA; settings: mean of both orientations
T33 chain: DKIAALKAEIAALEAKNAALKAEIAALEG

4H1552-AA = target: T34, 4H1552-AA; settings: mean of both orientations
T34 chain: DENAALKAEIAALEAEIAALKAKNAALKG

4H234-AA = target: T35, 4H234-AA; settings: mean of both orientations
T35 chain: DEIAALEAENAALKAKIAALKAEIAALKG

4H2466-AA = target: T36, 4H2466-AA; settings: mean of both orientations
T36 chain: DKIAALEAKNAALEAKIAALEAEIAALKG

4H2277-AA = target: T37, 4H2277-AA; settings: mean of both orientations
T37 chain: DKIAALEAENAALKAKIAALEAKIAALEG

4H3921-AA = target: T38, 4H3921-AA; settings: mean of both orientations
T38 chain: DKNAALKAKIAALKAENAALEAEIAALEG

4H429-AA = target: T39, 4H429-AA
T39 chain: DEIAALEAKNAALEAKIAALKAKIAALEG

4H1324-AA = target: T40, 4H1324-AA; settings: mean of both orientations
T40 chain: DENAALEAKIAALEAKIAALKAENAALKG

4H3844-AA = target: T41, 4H3844-AA; settings: mean of both orientations
T41 chain: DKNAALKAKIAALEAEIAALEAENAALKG

4H3627-AA = target: T42, 4H3627-AA; settings: mean of both orientations
T42 chain: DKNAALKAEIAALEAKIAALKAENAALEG

4H3606-AA = target: T43, 4H3606-AA; settings: mean of both orientations
T43 chain: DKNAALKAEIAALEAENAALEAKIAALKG

4H2505-AA = target: T44, 4H2505-AA; settings: mean of both orientations
T44 chain: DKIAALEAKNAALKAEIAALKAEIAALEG

4H2393-AA = target: T45, 4H2393-AA; settings: mean of both orientations
T45 chain: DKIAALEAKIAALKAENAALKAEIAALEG

4H3427-AA = target: T46, 4H3427-AA; settings: mean of both orientations
T46 chain: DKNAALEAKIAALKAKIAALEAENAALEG

4H2837-AA = target: T47, 4H2837-AA; settings: mean of both orientations
T47 chain: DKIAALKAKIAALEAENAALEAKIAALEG

4H48-AA = target: T48, 4H48-AA
T48 chain: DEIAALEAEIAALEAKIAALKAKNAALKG

4H454-AA = target: T49, 4H454-AA; settings: mean of both orientations
T49 chain: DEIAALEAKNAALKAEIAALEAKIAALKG

interaction score (4H1401-AA): -1.2
interaction score (4H2883-AA): 0.209
interaction score (4H2729-AA): 0.657
interaction score (4H2642-AA): 1.83
interaction score (4H794-AA): 1.48
interaction score (4H678-AA): 1.05
interaction score (4H2165-AA): -0.0868
interaction score (4H1867-AA): 1.01
interaction score (4H335-AA): -1.07
interaction score (4H2754-AA): 0.606
interaction score (4H2949-AA): -0.323
interaction score (4H2354-AA): 0.207
interaction score (4H3112-AA): -0.199
interaction score (4H906-AA): -1.43
interaction score (4H780-AA): -1.74
interaction score (4H605-AA): 0.129
interaction score (4H3655-AA): -1.14
interaction score (4H881-AA): 1.43
interaction score (4H317-AA): -1.2
interaction score (4H1352-AA): -1.3
interaction score (4H2190-AA): 1.57
interaction score (4H566-AA): 1.5
interaction score (4H3343-AA): -1.31
interaction score (4H342-AA): 1.76
interaction score (4H993-AA): -1.48
interaction score (4H2078-AA): 2.3
interaction score (4H2575-AA): -0.393
interaction score (4H122-AA): 1.61
interaction score (4H1636-AA): -1.44
interaction score (4H2151-AA): -1.58
interaction score (4H2944-AA): -1.12
interaction score (4H717-AA): -1.17
interaction score (4H2617-AA): 1.96
interaction score (4H1552-AA): -1.07
interaction score (4H234-AA): -1.28
interaction score (4H2466-AA): 0.13
interaction score (4H2277-AA): -1.29
interaction score (4H3921-AA): 2.16
interaction score (4H429-AA): -0.548
interaction score (4H1324-AA): -1.09
interaction score (4H3844-AA): -0.909
interaction score (4H3627-AA): -1.12
interaction score (4H3606-AA): 2.36
interaction score (4H2505-AA): -1.39
interaction score (4H2393-AA): 1.93
interaction score (4H3427-AA): -0.449
interaction score (4H2837-AA): 2.11
interaction score (4H48-AA): -0.383
interaction score (4H454-AA): -0.403
Binder: DEIAALEAEIAALKAKNAALKAEIAALKG [4H122-AA]
